# Experimental data from US9872893B2, “Endolysins active against Staphylococcus bacteria, pharmaceutical compositions, and methods relating thereto” (priority 2014, dated 2018).
# B1: CHAPGRCS: PlyGRCS catalytic CHAP domain, amino acids 1-140, SEQ ID NO: 6 (protein)
# chain: MKSQQQAKEWIYKHEGTGVDFDGAYGFQCMDLAVAYVYYITDGKVRMWGNAKDAINNDFKGLATVYENTPSFKPQLGDVAVYTNSQYGHIQCVISGNLDYYTCLEQNWLGGGFDGWEKATIRTHYYDGVTHFIRPKFSAS
# modifications: Synthetically generated polypeptide (CHAPGRCS (amino acids 1-140))
# B2: SH3_5GRCS: PlyGRCS cell wall binding SH3_5 domain, amino acids 150-250, SEQ ID NO: 7 (protein)
# chain: NTFGNWKQNQYGTYYRNENATFTCGFLPIFARVGSPKLSEPNGYWFQPNGYTPYDEVCLSDGLVWIGYNWQGTRYYLPVRQWNGKTGNSYSIGLPWGVFS
# modifications: Synthetically generated polypeptide (SH3_5GRCS (amino acids 150-250))
# What was measured:
# [1] = system: stationary phase S. aureus NRS-14; assay: turbidity reduction assay (lytic activity); assay type: cell-based, Staphylococcus aureus; settings: equimolar concentrations; for lytic activity (in words): isolated domain
# Description: Lytic activity was based on turbidity reduction assay (Nelson D C et al. (2012) Endolysins as antimicrobials. Adv Virus Res 83:299-365). Briefly, bacterial cells were centrifuged (4,000 RPM, 5 minutes, 4° C.), re-suspended in buffer and mixed 1:1 (v/v) with endolysin to a final OD600=1. OD600 readings were taken every 15 seconds for 20 minutes at 37° C. Endolysin activity was equated to the Vmax dictated by the linear portion of the resulting killing curve. Each experiment was performed in triplicate.
# To determine dose response, PlyGRCS was serially diluted and each dosage (100 μl) was added in triplicate to a 96-well polystyrene microtiter plate (Nest Biotech Co, Ltd) just before addition of bacterial cells (100 μl) according to the turbidity reduction assay described above. For optimum pH determination, bacterial cells were suspended in 40 mM boric acid/phosphoric acid (BP) buffer, pH 3-11, and were challenged against PlyGRCS. The influence of NaCl on PlyGRCS activity was tested in BP buffer at the experimentally determined pH optimum using the same assay. The effect of divalent cations was determined using the turbidity reduction assay with several modifications. First, PlyGRCS was incubated at room temperature in PBS or PBS supplemented with 5 mM EDTA for 10 minutes. Second, the EDTA-treated samples received either no further treatment, or were supplemented with 6 mM CaCl2 or 6 mM MgCl2. Finally, the lytic active of the samples was then immediately assayed and compared to PlyGRCS in PBS prior to EDTA inactivation. Kinetic stability was evaluated (Son B et al. (2012) Characterization of LysB4, an endolysin from the Bacillus cereus-infecting bacteriophage B4. BMC Microbiol 12:33) with minor modifications. Lytic assays were performed in optimal conditions after PlyGRCS was incubated at indicated temperatures for 30 minutes and subsequently recovered on ice for 5 minutes.
# [2] = circular dichroism melting experiments; assay type: physicochemical; settings: 0.1 mg/ml, 20 mM sodium phosphate buffer pH 7, 20-95° C. at 1° C./min
# Description: CD experiments for wild-type (WT) and active-site mutants were performed on a Chirascan CD spectrometer (Applied Photophysics) equipped with a thermoelectrically controlled cell holder. CD spectra were obtained in the far-UV range (190-260 nm) in a 1 mm path length quartz cuvette at 1 nm steps with 5 second signal averaging per data point. Spectra were collected in triplicate, followed by averaging, baseline subtraction, smoothing and conversion to mean residue ellipticity (MRE) by the Pro-Data software (Applied Photophysics). Secondary structure prediction was performed using the Provencher and Glockner method (Provencher S W & Glockner J (1981) Estimation of globular protein secondary structure from circular dichroism. Biochemistry 20(1):33-7) provided by DICHROWEB (Whitmore L & Wallace B A (2004) DICHROWEB, an online server for protein secondary structure analyses from circular dichroism spectroscopic data. Nucleic Acids Res 32:W668-73).
# Melting experiments were performed by heating PlyGRCS at a 0.1 mg/ml concentration in 20 mM sodium phosphate buffer pH 7 from 20° C. to 95° C. using a 1° C./min heating rate. MRE was monitored at 218 nm in a 1 mm path length quartz cuvette at 0.5° C. steps with 5 second signal averaging per data point. The melting data was smoothed, normalized and fit with a Boltzmann sigmoidal curve. The first derivative of the melting curve was then taken to determine the temperature (Tm) at which the folded and unfolded protein species in solution were at equilibrium (Fallas J A & Hartgerink J D (2012) Computational design of self-assembling register-specific collagen heterotrimers. Nat Commun 3:1087).
# [3] = system: Staphylococcus aureus, NRS-385; assay: plate lysis assay (spectrum of lytic activity); assay type: cell-based; set-up: key: strong lytic zone = ++; weak lytic zone = +; no lytic zone = −; settings: 6 μg; S. aureus NRS-385, MRSA
# Description: (§1) The PlyGRCS spectrum of lytic activity was performed (Schmelcher M et al. (2012) Chimeric phage lysins act synergistically with lysostaphin to kill mastitis-causing Staphylococcus aureus in murine mammary glands. Appl Environ Microbiol 78(7):2297-305) with minor modifications. Bacterial cells were diluted in sterile PBS to an OD600=1, and 100 μl was spread on each plate. 10 μl spots (600 μg/ml) of PlyGRCS or CHAPGRCS were applied. Plates were incubated overnight at 37° C. Strength of lytic zones was defined qualitatively.
# [4] = system: Streptococcus pneumoniae, ATCC BAA-334; assay: plate lysis assay (spectrum of lytic activity); assay type: cell-based; set-up: key: strong lytic zone = ++; weak lytic zone = +; no lytic zone = −; settings: 6 μg
# Description: as §1
# [5] = system: Streptococcus equi, ATCC 9528; assay: plate lysis assay (spectrum of lytic activity); assay type: cell-based; set-up: key: strong lytic zone = ++; weak lytic zone = +; no lytic zone = −; settings: 6 μg
# Description: as §1
# Bacillus pumulis, BJ0055 = assay: plate lysis assay (spectrum of lytic activity); assay type: cell-based; set-up: key: strong lytic zone = ++; weak lytic zone = +; no lytic zone = −; settings: 6 μg
# Description: as §1
# [6] = system: Enterococcus facealis, EF24; assay: plate lysis assay (spectrum of lytic activity); assay type: cell-based; set-up: key: strong lytic zone = ++; weak lytic zone = +; no lytic zone = −; settings: 6 μg
# Description: as §1
# [7] = system: Streptococcus pyogenes, D471; assay: plate lysis assay (spectrum of lytic activity); assay type: cell-based; set-up: key: strong lytic zone = ++; weak lytic zone = +; no lytic zone = −; settings: 6 μg
# Description: as §1
# [8] = system: Staphylococcus aureus, NRS-382; assay: plate lysis assay (spectrum of lytic activity); assay type: cell-based; set-up: key: strong lytic zone = ++; weak lytic zone = +; no lytic zone = −; settings: 6 μg; S. aureus NRS-382, MRSA
# Description: as §1
# [9] = system: Streptococcus uberis, ATCC 700407; assay: plate lysis assay (spectrum of lytic activity); assay type: cell-based; set-up: key: strong lytic zone = ++; weak lytic zone = +; no lytic zone = −; settings: 6 μg
# Description: as §1
# [10] = system: Streptococcus suis, 730082; assay: plate lysis assay (spectrum of lytic activity); assay type: cell-based; set-up: key: strong lytic zone = ++; weak lytic zone = +; no lytic zone = −; settings: 6 μg
# Description: as §1
# [11] = system: Staphylococcus epidermidis, NRS-101; assay: plate lysis assay (spectrum of lytic activity); assay type: cell-based; set-up: key to strength of lytic zone: strong lytic zone = ++; weak lytic zone = +; no lytic zone = −; settings: 6 μg
# Description: as §1
# [12] = system: Staphylococcus aureus, NRS-71; assay: plate lysis assay (spectrum of lytic activity); assay type: cell-based; set-up: key to strength of lytic zone: strong lytic zone = ++; weak lytic zone = +; no lytic zone = −; settings: 6 μg
# Description: as §1
# [13] = system: Staphylococcus aureus, NRS-14; assay: plate lysis assay (spectrum of lytic activity); assay type: cell-based; set-up: key to strength of lytic zone: strong lytic zone = ++; weak lytic zone = +; no lytic zone = −; settings: 6 μg; S. aureus NRS-14, VISA
# Description: as §1
# [14] = system: Staphylococcus aureus, NRS-384; assay: plate lysis assay (spectrum of lytic activity); assay type: cell-based; set-up: key to strength of lytic zone: strong lytic zone = ++; weak lytic zone = +; no lytic zone = −; settings: 6 μg
# Description: as §1
# S. aureus NRS-14 = assay: cell wall binding by fluorescence microscopy; set-up: species or system Staphylococcus aureus; settings: 10 μg, detected via anti-His antibody and AlexaFluor 488 secondary
# Description: An overnight culture of S. aureus NRS-14 was concentrated 5× in BP buffer and was incubated at room temperature with 10 μg SH3_5GRCS containing the 6× His tag for 10 minutes. A control without SH3_5GRCS was also utilized. The samples were washed with PBS and incubated for 10 minutes at room temperature with 1 μl mouse anti-His antibody (Gen Script). After washing with PBS, AlexaFluor-488 conjugated goat anti-mouse IgG (H+L) antibody (1 μl) (Invitrogen) was incubated with samples for an additional 10 minutes. Samples were washed again with PBS before being visualized via fluorescence and bright field microscopy. An Eclipse 80i epifluorescent microscope workstation (Nikon) with X-Cite 120 illuminator (EXFO) and Retiga 2000R CCD camera was used. NIS-Elements software (Nikon) was used for image analysis.
molecule,measurement,setting,value
B1,lytic activity relative to full-length PlyGRCS,[1],8-10%
same,lytic activity relative to full-length PlyGRCS,[1]; listed as CHAP domain,about 10%
same,Tm,[2],44.8 °C
same,strength of lytic zone,[3],−
same,strength of lytic zone,[4],−
same,strength of lytic zone,[5],−
same,strength of lytic zone,"Bacillus pumulis, BJ0055",−
same,strength of lytic zone,[6],−
same,strength of lytic zone,[7],−
same,strength of lytic zone,[8],−
same,strength of lytic zone,[9],−
same,strength of lytic zone,[10],−
same,lytic activity on plates (in words),[11]; S. epidermidis NRS-101,relatively weak clearing zones
same,strength of lytic zone,"[11]; S. epidermidis NRS-101, MRSE",+
same,lytic activity on plates (in words),[12]; S. aureus NRS-71,relatively weak clearing zones
same,strength of lytic zone,"[12]; S. aureus NRS-71, MRSA",+
same,strength of lytic zone,[13],−
same,lytic activity on plates (in words),[14]; S. aureus NRS-384,relatively weak clearing zones
same,strength of lytic zone,"[14]; S. aureus NRS-384, MRSA",+
B2,binding to staphylococcal cell wall,S. aureus NRS-14,possessed the ability to specifically bind staphylococci
same,binding to staphylococcal cell wall,S. aureus NRS-14; listed as SH3_5 binding domain,interact directly with the staphylococcal cell wall
same,lytic activity (in words),[1],little to no lytic activity
same,lytic activity (in words),[1]; listed as SH3_5 binding domain,lacked activity
same,Tm,[2],44.5 °C
